Laboratory results as given in the supplement of paper PMC7877785.
± gives the uncertainty stated by the source.

Test: self-splicing fitness, log relative to wild type (ln ratio); higher = more splicing; Tetrahymena group I intron in knt gene, E. coli kanamycin selection, DiMSum; sequences stand for … in CUCUCU…GGAGGGAAAAGUUAUCAGGCAUGCACCUGGUAGCUAGUCUUUAAACCAAUAGAUUGCAUCGGUUUAAAAGGCAAGACCGUCAAAUUGCGGGAAAGGGGUCAACAGCCGUUCAGUACCAAGUCUCAGGGGAAACUUUGAGAUGGCCUUGCAAAGGGUAUGGUAAUAAGCUGACGGACAUGGUCCUAACCACGCAGCCAAGUCCUAAGUCAACAGAUCUUCUGUUGAUAUGGAUGCAGUUCACAGACUAAAUGUCGGUCGGGGAAGAUGUAUUCUUCUCAUAAGAUAUAGUCGGACCUCUCCUUAAUGGGAGCUAGCGGAUGAAGUGAUGCAACACUGGAGCCGCUGGGAACUAAUUUGUAUGCGAAAGUAUAUUGAUUAGUUUUGGAGUACUCGUGGUCG
Summary of the method: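 A randomised library covering all eight P1ex-region intron nucleotides was built with the intron in the knt kanamycin-resistance gene on pET-22b(+) and held in E. coli BL21(DE3). Cells were grown overnight at 37°C or 30°C on LB agar, with or without 25 μg/mL kanamycin, plus 100 μg/mL carbenicillin, 50 μM IPTG and 0.2% rhamnose, and pooled colonies were amplicon-sequenced on an Illumina HiSeq 2500. DiMSum fitness is the error-weighted combination of wild-type-normalised replicate fold changes, kanamycin versus none.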

Row | Sequence | self-splicing fitness (ln) (30 °C) | self-splicing fitness (ln) (37 °C)
1 | AUAGAGCAAUAUUACGAGGG | -3.05 ± 0.25 | -1.56 ± 0.26
2 | AUAGAGCAAUAUUACGAUCA | -0.545 ± 0.098 | -0.894 ± 0.15
3 | AUAGAGCAAUAUUACGAUUC | -2.37 ± 0.28 | -1.08 ± 0.33
4 | AUAGAGCAAUAUUACGAUUU | -0.251 ± 0.081 | 0.0148 ± 0.1
5 | AUAGAGCAAUAUUACGCAGA | -2.57 ± 0.21 | -1.84 ± 0.16
6 | AUAGAGCAAUAUUACGCAGC | -2.33 ± 0.45 | 
7 | AUAGAGCAAUAUUACGCAUC | -3.91 ± 0.31 | -2.11 ± 0.25
8 | AUAGAGCAAUAUUACGCAUG | -1.85 ± 0.16 | -1.42 ± 0.23
9 | AUAGAGCAAUAUUACGCCGU | -0.866 ± 0.21 | 0.511 ± 0.26
10 | AUAGAGCAAUAUUACGCGCG | -1.47 ± 0.2 | -0.725 ± 0.23
11 | AUAGAGCAAUAUUACGCGCU | -2.64 ± 0.29 | -0.717 ± 0.24
12 | AUAGAGCAAUAUUACGCGGA | -1.35 ± 0.092 | -1.48 ± 0.11
13 | AUAGAGCAAUAUUACGCGUC | -1.8 ± 0.39 | -1.82 ± 0.26
14 | AUAGAGCAAUAUUACGCUAA | -1.33 ± 0.13 | -0.315 ± 0.18
15 | AUAGAGCAAUAUUACGCUGA | -1.26 ± 0.15 | -1.03 ± 0.17
16 | AUAGAGCAAUAUUACGGAAC | -3.66 ± 0.27 | -1.92 ± 0.24
17 | AUAGAGCAAUAUUACGGCAA | -1.97 ± 0.21 | -0.382 ± 0.17
18 | AUAGAGCAAUAUUACGUAGA | -3.41 ± 0.25 | -2.52 ± 0.24
19 | AUAGAGCAAUAUUACGUAGG | -2.32 ± 0.18 | -2.65 ± 0.38
20 | AUAGAGCAAUAUUACGUAUC | -2.94 ± 0.37 | -2.16 ± 0.43
21 | AUAGAGCAAUAUUACGUGGG | -3.77 ± 0.31 | -1.79 ± 0.32
22 | AUAGAGCAAUAUUACGUUAA | -2.32 ± 0.19 | -1.76 ± 0.23
23 | AUAGAGCAAUAUUACGUUCU | -1.35 ± 0.15 | 0.267 ± 0.17
24 | AUAUAGCAAUAUUACGAACG | -1.56 ± 0.18 | -0.154 ± 0.2
25 | AUAUAGCAAUAUUACGAAGC | -2.96 ± 0.31 | 
26 | AUAUAGCAAUAUUACGAAGU | -3.37 ± 0.3 | -1.63 ± 0.36

Row | Sequence | self-splicing fitness (ln) (30 °C) | self-splicing fitness (ln) (37 °C)
27 | AUAUAGCAAUAUUACGAAUA | -1.36 ± 0.32 | 
28 | AUAUAGCAAUAUUACGACGG | -2.5 ± 0.17 | -2.5 ± 0.22
29 | AUAUAGCAAUAUUACGAUGU | 0.361 ± 0.18 | -0.83 ± 0.23
30 | AUAUAGCAAUAUUACGCGAA |  | -1.32 ± 0.23
31 | AUAUAGCAAUAUUACGCGAG | -2.35 ± 0.13 | -1.09 ± 0.13
32 | AUAUAGCAAUAUUACGCGAU | -2.69 ± 0.33 | -1.57 ± 0.49
33 | AUAUAGCAAUAUUACGCGGG | -2.72 ± 0.38 | -1.33 ± 0.22
34 | AUAUAGCAAUAUUACGCGGU | -2.75 ± 0.18 | -2.28 ± 0.19
35 | AUAUAGCAAUAUUACGCUGU | -2.9 ± 0.22 | -2.32 ± 0.21
36 | AUAUAGCAAUAUUACGGAAU | -1.92 ± 0.21 | 0.227 ± 0.23
37 | AUAUAGCAAUAUUACGGACA | -1.48 ± 0.22 | -1.2 ± 0.23
38 | AUAUAGCAAUAUUACGGAGG | -3.24 ± 0.45 | 
39 | AUAUAGCAAUAUUACGGCCG | -1.15 ± 0.2 | -0.566 ± 0.25
40 | AUAUAGCAAUAUUACGGGAC | -2.51 ± 0.48 | -1.82 ± 0.48
41 | AUAUAGCAAUAUUACGGGAG | -4.22 ± 0.39 | -1.59 ± 0.24
42 | AUAUAGCAAUAUUACGGGCG | -1.47 ± 0.17 | -0.59 ± 0.15
43 | AUAUAGCAAUAUUACGGUCA | -1.16 ± 0.23 | -0.947 ± 0.19
44 | AUAUAGCAAUAUUACGGUCC | -2.8 ± 0.25 | -1.44 ± 0.33
45 | AUAUAGCAAUAUUACGGUCG | -1.44 ± 0.13 | -1.26 ± 0.17
46 | AUAUAGCAAUAUUACGGUCU | -0.211 ± 0.076 | 0.0619 ± 0.1
47 | AUAUAGCAAUAUUACGUCCG |  | -1.64 ± 0.43
48 | AUAUAGCAAUAUUACGUCGC | -2.48 ± 0.27 | -1.31 ± 0.37
49 | AUAUAGCAAUAUUACGUUCU | -1.47 ± 0.18 | -0.302 ± 0.21
50 | AUAUAGCAAUAUUACGUUGA | -2.63 ± 0.22 | -2.53 ± 0.26
51 | AUAUAGCAAUAUUACGUUUC | -2.54 ± 0.27 | -1.45 ± 0.3
52 | AUCAAGCAAUAUUACGAGCG | -1.92 ± 0.12 | -1.21 ± 0.14

Row | Sequence | self-splicing fitness (ln) (30 °C) | self-splicing fitness (ln) (37 °C)
53 | AUCAAGCAAUAUUACGAUUC | -2.14 ± 0.12 | -1.25 ± 0.16
54 | AUCAAGCAAUAUUACGCAAA | -2.96 ± 0.2 | -1.67 ± 0.15
55 | AUCAAGCAAUAUUACGCAGC | -2.12 ± 0.2 | -1.8 ± 0.25
56 | AUCAAGCAAUAUUACGCAUA | -1.94 ± 0.099 | -0.751 ± 0.084
57 | AUCAAGCAAUAUUACGCAUC | -3.97 ± 0.24 | -1.64 ± 0.14
58 | AUCAAGCAAUAUUACGCUCG | -0.803 ± 0.091 | -0.236 ± 0.11
59 | AUCAAGCAAUAUUACGGGAU | -2.33 ± 0.097 | -2.12 ± 0.13
60 | AUCAAGCAAUAUUACGGGUA | -2.04 ± 0.11 | -1.16 ± 0.091
61 | AUCAAGCAAUAUUACGGGUC | -3.33 ± 0.29 | -2.19 ± 0.27
62 | AUCAAGCAAUAUUACGGUAU | -1.93 ± 0.063 | -0.833 ± 0.077
63 | AUCAAGCAAUAUUACGGUCG | -2.22 ± 0.12 | -2.03 ± 0.14
64 | AUCAAGCAAUAUUACGUCCC | -0.841 ± 0.076 | 0.17 ± 0.11
65 | AUCAAGCAAUAUUACGUUAU | -2.29 ± 0.1 | -0.69 ± 0.09
66 | AUCAAGCAAUAUUACGUUCU | -0.858 ± 0.092 | -0.459 ± 0.12
67 | AUCCAGCAAUAUUACGAAAC | -2.56 ± 0.11 | -1.47 ± 0.16
68 | AUCCAGCAAUAUUACGACAG | -3.47 ± 0.14 | -1.75 ± 0.19
69 | AUCCAGCAAUAUUACGAGCG | -2.01 ± 0.11 | -1.24 ± 0.12
70 | AUCCAGCAAUAUUACGAGGA | -2.21 ± 0.17 | -1.49 ± 0.17
71 | AUCCAGCAAUAUUACGAUAA | -1.56 ± 0.15 | -1.03 ± 0.19
72 | AUCCAGCAAUAUUACGAUUU | -0.0954 ± 0.061 | 0.488 ± 0.081
73 | AUCCAGCAAUAUUACGCCAG | -0.923 ± 0.44 | -2.6 ± 0.48
74 | AUCCAGCAAUAUUACGCCAU | -3.28 ± 0.21 | -1.27 ± 0.14
75 | AUCCAGCAAUAUUACGCCGC | -4.25 ± 0.46 | -2.58 ± 0.38
76 | AUCCAGCAAUAUUACGCCGG | -3.51 ± 0.24 | -2.36 ± 0.41
77 | AUCCAGCAAUAUUACGCCUC | -1.53 ± 0.089 | -1.06 ± 0.14
78 | AUCCAGCAAUAUUACGCGUC | -3.24 ± 0.12 | -1.3 ± 0.13
